Measurements taken from the supplement of paper PMC7877785.
± gives the uncertainty stated by the source.

Assay: self-splicing fitness, log relative to wild type (ln ratio); higher = more splicing; Tetrahymena group I intron in knt gene, E. coli kanamycin selection, DiMSum; sequences stand for … in CUCUCU…GGAGGGAAAAGUUAUCAGGCAUGCACCUGGUAGCUAGUCUUUAAACCAAUAGAUUGCAUCGGUUUAAAAGGCAAGACCGUCAAAUUGCGGGAAAGGGGUCAACAGCCGUUCAGUACCAAGUCUCAGGGGAAACUUUGAGAUGGCCUUGCAAAGGGUAUGGUAAUAAGCUGACGGACAUGGUCCUAACCACGCAGCCAAGUCCUAAGUCAACAGAUCUUCUGUUGAUAUGGAUGCAGUUCACAGACUAAAUGUCGGUCGGGGAAGAUGUAUUCUUCUCAUAAGAUAUAGUCGGACCUCUCCUUAAUGGGAGCUAGCGGAUGAAGUGAUGCAACACUGGAGCCGCUGGGAACUAAUUUGUAUGCGAAAGUAUAUUGAUUAGUUUUGGAGUACUCGUGGUCG
Method in brief: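 The eight P1ex-region nucleotides of an intron in the knt kanamycin-resistance gene on pET-22b(+) were all randomised and the library put into E. coli BL21(DE3). Six replicate transformations were grown overnight at 37°C or 30°C on LB agar with or without 25 μg/mL kanamycin, together with 100 μg/mL carbenicillin, 50 μM IPTG and 0.2% rhamnose. Colonies were pooled and amplicon-sequenced on an Illumina HiSeq 2500. Fitness from DiMSum is the error-weighted combination of wild-type-normalised replicate fold changes, kanamycin over none.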

| Sequence | self-splicing fitness (ln) (30 °C) | self-splicing fitness (ln) (37 °C) |
| --- | --- | --- |
| CGAUAGCAAUAUUACGCAAU | -3.43 ± 0.27 | -2.26 ± 0.25 |
| CGAUAGCAAUAUUACGCAUA | -3.25 ± 0.28 | -1.8 ± 0.24 |
| CGAUAGCAAUAUUACGCCGA | -1.92 ± 0.21 | -2.05 ± 0.28 |
| CGAUAGCAAUAUUACGCGGA | -2.21 ± 0.22 | -0.662 ± 0.15 |
| CGAUAGCAAUAUUACGGCGU | -0.866 ± 0.085 | 0.51 ± 0.12 |
| CGAUAGCAAUAUUACGGGCA | -2.06 ± 0.14 | -1.53 ± 0.15 |
| CGAUAGCAAUAUUACGGGGG | -3.7 ± 0.3 | -1.49 ± 0.16 |
| CGAUAGCAAUAUUACGGUCA | -0.212 ± 0.057 | 0.228 ± 0.065 |
| CGAUAGCAAUAUUACGGUUA | -0.777 ± 0.17 | -0.253 ± 0.13 |
| CGAUAGCAAUAUUACGGUUG | -1.9 ± 0.15 | -0.9 ± 0.13 |
| CGAUAGCAAUAUUACGUCCG | -1.4 ± 0.1 | -0.5 ± 0.12 |
| CGAUAGCAAUAUUACGUGUU | -4.25 ± 0.14 | -2.3 ± 0.1 |
| CGCAAGCAAUAUUACGAAUU | -2.55 ± 0.2 | -3.57 ± 0.46 |
| CGCAAGCAAUAUUACGACUA | -1.47 ± 0.22 | -0.703 ± 0.2 |
| CGCAAGCAAUAUUACGAGGA | -3.23 ± 0.24 | -2.81 ± 0.29 |
| CGCAAGCAAUAUUACGAGGC | -2.71 ± 0.2 | -2.84 ± 0.29 |
| CGCAAGCAAUAUUACGAGUA | -2.53 ± 0.14 | -0.869 ± 0.096 |
| CGCAAGCAAUAUUACGAUAA | -3.03 ± 0.19 | -1.51 ± 0.23 |
| CGCAAGCAAUAUUACGCCGC | – | -1.24 ± 0.49 |

| Sequence | self-splicing fitness (ln) (30 °C) | self-splicing fitness (ln) (37 °C) |
| --- | --- | --- |
| CGCAAGCAAUAUUACGGACG | -1.45 ± 0.1 | -0.532 ± 0.11 |
| CGCAAGCAAUAUUACGGACU | -1.39 ± 0.08 | 0.158 ± 0.082 |
| CGCAAGCAAUAUUACGGAGU | -3.16 ± 0.2 | -1.68 ± 0.18 |
| CGCAAGCAAUAUUACGGGCA | 0.0951 ± 0.064 | -0.199 ± 0.075 |
| CGCAAGCAAUAUUACGGGCU | -1.68 ± 0.12 | -0.144 ± 0.16 |
| CGCAAGCAAUAUUACGGGUA | -1.68 ± 0.086 | -0.81 ± 0.09 |
| CGCAAGCAAUAUUACGGUUG | -2.25 ± 0.098 | -1.18 ± 0.096 |
| CGCAAGCAAUAUUACGUAGG | -1.24 ± 0.057 | -0.509 ± 0.075 |
| CGCAAGCAAUAUUACGUCCC | -2.84 ± 0.34 | -0.615 ± 0.26 |
| CGCCAGCAAUAUUACGAAAA | -3.4 ± 0.29 | -2.7 ± 0.2 |
| CGCCAGCAAUAUUACGACAG | -0.00427 ± 0.052 | 0.18 ± 0.067 |
| CGCCAGCAAUAUUACGACUC | -3.02 ± 0.22 | -2.21 ± 0.25 |
| CGCCAGCAAUAUUACGACUG | -0.729 ± 0.13 | 0.335 ± 0.15 |
| CGCCAGCAAUAUUACGAGGU | -4.39 ± 0.28 | -1.89 ± 0.18 |
| CGCCAGCAAUAUUACGAUCG | -0.715 ± 0.063 | -0.476 ± 0.092 |
| CGCCAGCAAUAUUACGCAGU | -4.04 ± 0.18 | -2.18 ± 0.16 |
| CGCCAGCAAUAUUACGCCCG | -1.47 ± 0.14 | -0.959 ± 0.19 |
| CGCCAGCAAUAUUACGCCUG | -1.21 ± 0.1 | -0.608 ± 0.096 |
| CGCCAGCAAUAUUACGCGCC | -1.82 ± 0.27 | -1.15 ± 0.27 |
